Assay [1] concerns the target T1, SARS-CoV-2 spike protein RBD (amino acids 319-537 of SEQ ID NO:1, i.e. SEQ ID NO:5) with a carboxy t (SARS-CoV-2), P0DTC2. To be noted: remark: other sources report otherwise.
The target in assay [2] is T1, SARS-CoV-2 spike protein RBD (amino …). Particulars: remark: other sources report otherwise. The source holds these as a separate data set.

Read-outs that look alike come from different tables or passages of the source.

B1: antibody S1D2 (fully human recombinant monoclonal IgG1, no Fc mutation) (antibody, V domains shown)
VH: EVQLVESGGGLIQPGGSLRLSCAASGFTVSSNYMSWVRQAPGKGLEWVSIIYPGGSTNYADSVKGRFTISRDNSRNTLYLQMNSLRAEDTAVYYCARELGYYGMDVWGQGTTVTVSS
VL: DIQMTQSPSSVSASVGDRVTITCRASQGISTWLVWYQQKPGKAPNLLIYGASSLQSGVPSRFSGSGSGTDFTLTISSLQPEDFATYYCQQANSFPYTFGQGTKLEIK
On to B1, for which, in assay [1], the Kd (as a rule, the concentration at which binding is half-saturated) is 46.2 nM; the koff (commonly the first-order rate constant of dissociation) was 0.027 s⁻¹; the on-rate constant (kon) (usually the second-order rate constant of association) came out at 584000 M⁻¹ s⁻¹. The molecule further registered a Kd in assay [2] of 46 nM.

Values taken from US20230406907A1.
